We go through 58 substances from patent US20260008815A1, “CYCLIC PEPTIDE OR SALT THEREOF, AND USES THEREOF” (FUJIFILM Corporation, priority 2023, published 2026).

Bridge positions count the residues as written; N and C are the ends. Ends that are not written are not given here. COCH2 = acetyl group that carries the bridge

T1 sequence (P21802 with tags, fused parts or gaps limits assumed): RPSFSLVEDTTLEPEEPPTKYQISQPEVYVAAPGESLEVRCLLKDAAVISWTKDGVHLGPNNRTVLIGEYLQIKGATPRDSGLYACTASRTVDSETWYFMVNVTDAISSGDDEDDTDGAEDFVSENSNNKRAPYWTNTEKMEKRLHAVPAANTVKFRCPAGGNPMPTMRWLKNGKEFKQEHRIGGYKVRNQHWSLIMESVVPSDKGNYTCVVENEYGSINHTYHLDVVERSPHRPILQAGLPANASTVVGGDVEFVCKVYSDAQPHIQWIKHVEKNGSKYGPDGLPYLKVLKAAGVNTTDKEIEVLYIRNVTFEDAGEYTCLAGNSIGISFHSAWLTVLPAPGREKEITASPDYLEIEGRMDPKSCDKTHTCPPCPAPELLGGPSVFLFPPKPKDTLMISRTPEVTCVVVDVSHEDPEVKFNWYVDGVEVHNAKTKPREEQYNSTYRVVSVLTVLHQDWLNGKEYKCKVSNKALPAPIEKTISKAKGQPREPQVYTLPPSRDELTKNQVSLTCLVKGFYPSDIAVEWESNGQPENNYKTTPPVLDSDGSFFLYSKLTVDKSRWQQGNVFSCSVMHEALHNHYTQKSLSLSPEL

This test addresses T1, Recombinant Human FGFR2 alpha (IIIc) Fc Chimera Protein (Homo sapiens, UniProt P21802).
T1 construct: Fc (chimera); purchased R&D systems 712-FR-050
The experiment in a line: ELISA binding affinity of enzymatically synthesized peptide to FGFR. Conditions: ELISA luminescence signal at 10 nmol/L peptide, SEQ ID NO: 47 at 10 nmol/L standardized to 1; enzyme synthesis product. In a few lines:
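FGFR2 alpha (IIIc) Fc chimera (5 ng/well) was immobilized, and Myc-tagged peptide was bound 3 h at room temperature, then detected with anti-Myc antibody (2 h) and chemiluminescent substrate. Signal was corrected against FGFR-free wells. Score A–D was the luminescence at 10 nmol/L peptide, normalized to cyclic peptide SEQ ID NO: 47.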
In the case of “260 (YCEENYLDPEQYVYFIYFK(COCH2)Y; thioether 2-19) [compound 260]”, the “Evaluation result of binding affinity to FGFR” value (from here on “Evaluation result”) is listed as “A (0.7 or more)”. Then “261 (YCEENYLDPEQYFYFIYFK(COCH2)Y; thioether 2-19) [compound 261]”, with “B (0.5 or more and less than 0.7)”. As for “262 (YCEENYLDPEQYYYFIYFK(COCH2)Y; thioether 2-19) [compound 262]”, the entry is “A (0.7 or more)”. Then “263 (YCEENYLDPEQYWYFIYFK(COCH2)Y; thioether 2-19) [compound 263]”, with “A (0.7 or more)”; and “264 (YCEENYLDPEQYNYFIYFK(COCH2)Y; thioether 2-19) [compound 264]”, with “A (0.7 or more)”; and “265 (YCEENYLDPEQYSYFIYFK(COCH2)Y; thioether 2-19) [compound 265]”, with “A (0.7 or more)”. For “266 (YCEENYLDPEQYTYFIYFK(COCH2)Y; thioether 2-19) [compound 266]”, the “Evaluation result” value was “A (0.7 or more)”. As for “267 (YCEENYLDPEQYDYFIYFK(COCH2)Y; thioether 2-19) [compound 267]”, the entry is “A (0.7 or more)”; as for “268 (YCEENYLDPEQYEYFIYFK(COCH2)Y; thioether 2-19) [compound 268]”, “A (0.7 or more)”; as for “269 (YCEENYLDPEQYRYFIYFK(COCH2)Y; thioether 2-19) [compound 269]”, “A (0.7 or more)”. Then “270 (YCEENYLDPEQYHYFIYFK(COCH2)Y; thioether 2-19) [compound 270]”, with “A (0.7 or more)”; and “271 (YCEENYLDPEQYQIFIYFK(COCH2)Y; thioether 2-19) [compound 271]”, with “C (0.1 or more and less than 0.5)”; and “272 (YCEENYLDPEQYQFFIYFK(COCH2)Y; thioether 2-19) [compound 272]”, with “A (0.7 or more)”. Then “273 (YCEENYLDPEQYQNFIYFK(COCH2)Y; thioether 2-19) [compound 273]”, with “C (0.1 or more and less than 0.5)”; and “274 (YCEENYLDPEQYQHFIYFK(COCH2)Y; thioether 2-19) [compound 274]”, with “C (0.1 or more and less than 0.5)”. Turning to “275 (YCEENYLDPEQYQYLIYFK(COCH2)Y; thioether 2-19) [compound 275]”, the “Evaluation result” value is reported as “A (0.7 or more)”. On to “276 (YCEENYLDPEQYQYYIYFK(COCH2)Y; thioether 2-19) [compound 276]”, for which the “Evaluation result” value is “B (0.5 or more and less than 0.7)”. As for “277 (YCEENYLDPEQYQYFGYFK(COCH2)Y; thioether 2-19) [compound 277]”, the entry is “C (0.1 or more and less than 0.5)”; as for “278 (YCEENYLDPEQYQYFLYFK(COCH2)Y; thioether 2-19) [compound 278]”, “A (0.7 or more)”. With “279 (YCEENYLDPEQYQYFVYFK(COCH2)Y; thioether 2-19) [compound 279]”, the “Evaluation result” value is reported as “A (0.7 or more)”. Then “280 (YCEENYLDPEQYQYFFYFK(COCH2)Y; thioether 2-19) [compound 280]”, with “A (0.7 or more)”; and “281 (YCEENYLDPEQYQYFYYFK(COCH2)Y; thioether 2-19) [compound 281]”, with “A (0.7 or more)”; and “282 (YCEENYLDPEQYQYFWYFK(COCH2)Y; thioether 2-19) [compound 282]”, with “A (0.7 or more)”. Then “283 (YCEENYLDPEQYQYFNYFK(COCH2)Y; thioether 2-19) [compound 283]”, with “A (0.7 or more)”. As for “284 (YCEENYLDPEQYQYFQYFK(COCH2)Y; thioether 2-19) [compound 284]”, the entry is “A (0.7 or more)”; as for “285 (YCEENYLDPEQYQYFSYFK(COCH2)Y; thioether 2-19) [compound 285]”, “A (0.7 or more)”; as for “286 (YCEENYLDPEQYQYFTYFK(COCH2)Y; thioether 2-19) [compound 286]”, “A (0.7 or more)”. In the case of “287 (YCEENYLDPEQYQYFDYFK(COCH2)Y; thioether 2-19) [compound 287]”, the “Evaluation result” value is listed as “A (0.7 or more)”. As for “288 (YCEENYLDPEQYQYFEYFK(COCH2)Y; thioether 2-19) [compound 288]”, the entry is “A (0.7 or more)”; as for “289 (YCEENYLDPEQYQYFRYFK(COCH2)Y; thioether 2-19) [compound 289]”, “A (0.7 or more)”; as for “290 (YCEENYLDPEQYQYFHYFK(COCH2)Y; thioether 2-19) [compound 290]”, “A (0.7 or more)”. In the case of “291 (YCEENYLDPEQYQYFIGFK(COCH2)Y; thioether 2-19) [compound 291]”, the “Evaluation result” value is “B (0.5 or more and less than 0.7)”.

In the case of “292 (YCEENYLDPEQYQYFIPFK(COCH2)Y; thioether 2-19) [compound 292]”, the “Evaluation result” value is “C (0.1 or more and less than 0.5)”. “293 (YCEENYLDPEQYQYFILFK(COCH2)Y; thioether 2-19) [compound 293]”: the “Evaluation result” value is “A (0.7 or more)”. As for “294 (YCEENYLDPEQYQYFIIFK(COCH2)Y; thioether 2-19) [compound 294]”, the entry is “B (0.5 or more and less than 0.7)”; as for “295 (YCEENYLDPEQYQYFIVFK(COCH2)Y; thioether 2-19) [compound 295]”, “A (0.7 or more)”. With “296 (YCEENYLDPEQYQYFIFFK(COCH2)Y; thioether 2-19) [compound 296]”, the “Evaluation result” value was “A (0.7 or more)”. As to “297 (YCEENYLDPEQYQYFIWFK(COCH2)Y; thioether 2-19) [compound 297]”, the “Evaluation result” value is on record as “A (0.7 or more)”. Then “298 (YCEENYLDPEQYQYFINFK(COCH2)Y; thioether 2-19) [compound 298]”, with “A (0.7 or more)”. As for “299 (YCEENYLDPEQYQYFIQFK(COCH2)Y; thioether 2-19) [compound 299]”, the entry is “A (0.7 or more)”. As to “300 (YCEENYLDPEQYQYFISFK(COCH2)Y; thioether 2-19 (inferred)) [compound 300]”, the “Evaluation result” value is recorded as “A (0.7 or more)”. Then “301 (YCEENYLDPEQYQYFITFK(COCH2)Y; thioether 2-19 (inferred)) [compound 301]”, with “A (0.7 or more)”; and “302 (YCEENYLDPEQYQYFIDFK(COCH2)Y; thioether 2-19 (inferred)) [compound 302]”, with “A (0.7 or more)”; and “303 (YCEENYLDPEQYQYFIEFK(COCH2)Y; thioether 2-19 (inferred)) [compound 303]”, with “A (0.7 or more)”.

“304 (YCEENYLDPEQYQYFIRFK(COCH2)Y; thioether 2-19 (inferred)) [compound 304]”: the “Evaluation result” value was “A (0.7 or more)”. Regarding “305 (YCEENYLDPEQYQYFIHFK(COCH2)Y; thioether 2-19 (inferred)) [compound 305]”, the “Evaluation result” value was “A (0.7 or more)”. As to “306 (YCEENYLDPEQYQYFIYYK(COCH2)Y; thioether 2-19 (inferred)) [compound 306]”, the “Evaluation result” value is given as “A (0.7 or more)”. Then “307 (YCEENYLDPEQYQYFIYWK(COCH2)Y; thioether 2-19 (inferred)) [compound 307]”, with “A (0.7 or more)”; and “308 (YCEENYLDPEQYQYFIYFK(COCH2)G; thioether 2-19 (inferred)) [compound 308]”, with “A (0.7 or more)”; and “309 (YCEENYLDPEQYQYFIYFK(COCH2)L; thioether 2-19 (inferred)) [compound 309]”, with “A (0.7 or more)”. On to “310 (YCEENYLDPEQYQYFIYFK(COCH2)I; thioether 2-19 (inferred)) [compound 310]”, for which the “Evaluation result” value is “A (0.7 or more)”. Then “311 (YCEENYLDPEQYQYFIYFK(COCH2)V; thioether 2-19 (inferred)) [compound 311]”, with “A (0.7 or more)”. As for “312 (YCEENYLDPEQYQYFIYFK(COCH2)F; thioether 2-19 (inferred)) [compound 312]”, the entry is “A (0.7 or more)”; as for “313 (YCEENYLDPEQYQYFIYFK(COCH2)W; thioether 2-19 (inferred)) [compound 313]”, “A (0.7 or more)”.

On to “314 (YCEENYLDPEQYQYFIYFK(COCH2)N; thioether 2-19 (inferred)) [compound 314]”, for which the “Evaluation result” value is listed as “A (0.7 or more)”. Then “315 (YCEENYLDPEQYQYFIYFK(COCH2)Q; thioether 2-19 (inferred)) [compound 315]”, with “A (0.7 or more)”; and “316 (YCEENYLDPEQYQYFIYFK(COCH2)S; thioether 2-19 (inferred)) [compound 316]”, with “A (0.7 or more)”; and “317 (YCEENYLDPEQYQYFIYFK(COCH2)T; thioether 2-19 (inferred)) [compound 317]”, with “A (0.7 or more)”.
